Data published in paper PMC11125907, “A Portable Readout System for Biomarker Detection with Aptamer-Modified CMOS ISFET Array”.

Molecular target: cardiac troponin I (cTnI) (human, UniProt P19429 2-210)
Assay: ISFET aptasensor; 1 mM Mg2+; AC mode 2.4 V, 10 kHz 0.1 Vp-p; LoD 3.27 ng/mL, linear range 3.27-625 ng/mL (no Kd); 10 mM Tris-HCl pH 7.7, 8 mM NaCl, 1 mM MgCl2; temperature not stated
Details: protein: recombinant

Sequence of cardiac troponin I (cTnI) (P19429 2-210): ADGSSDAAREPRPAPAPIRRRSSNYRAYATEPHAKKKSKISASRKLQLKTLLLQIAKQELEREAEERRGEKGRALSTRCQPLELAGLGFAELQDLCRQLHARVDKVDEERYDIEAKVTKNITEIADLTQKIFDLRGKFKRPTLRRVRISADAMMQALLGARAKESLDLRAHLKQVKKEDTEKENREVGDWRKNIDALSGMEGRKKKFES

CGCATGCCAAACGTTGCCTCATAGTTCCCTCCCCGTGTCC (ssDNA, 5'-SH (thiol)) [Tro6]: binds.
